Results as given in patent publication US20240115667A1 (priority 2020, published 2024).
“Also recorded” adds a separate entry of the source.

How the values were obtained:
[1] = tested on: SARS-CoV-2; assay type: cell-based; conditions: 400 μg/ml lactoferrin, 48 h after infection
[2] = tested on: SARS-CoV-2

B1: lactoferrin: lactoferrin from human milk; iron-binding ~80 kDa glycosylated protein (protein, UniProt P02788 20-710, looked up)
Lactotransferrin: GRRRSVQWCAVSQPEATKCFQWQRNMRKVRGPPVSCIKRDSPIQCIQAIAENRADAVTLDGGFIYEAGLAPYKLRPVAAEVYGTERQPRTHYYAVAVVKKGGSFQLNELQGLKSCHTGLRRTAGWNVPIGTLRPFLNWTGPPEPIEAAVARFFSASCVPGADKGQFPNLCRLCAGTGENKCAFSSQEPYFSYSGAFKCLRDGAGDVAFIRESTVFEDLSDEAERDEYELLCPDNTRKPVDKFKDCHLARVPSHAVVARSVNGKEDAIWNLLRQAQEKFGKDKSPKFQLFGSPSGQKDLLFKDSAIGFSRVPPRIDSGLYLGSGYFTAIQNLRKSEEEVAARRARVVWCAVGEQELRKCNQWSGLSEGSVTCSSASTTEDCIALVLKGEADAMSLDGGYVYTAGKCGLVPVLAENYKSQQSSDPDPNCVDRPVEGYLAVAVVRRSDTSLTWNSVKGKKSCHTAVDRTAGWNIPMGLLFNQTGSCKFDEYFSQSCAPGSDPRSNLCALCIGDEQGENKCVPNSNERYYGYTGAFRCLAENAGDVAFVKDVTVLQNTDGNNNEAWAKDLKLADFALLCLDGKRKPVTEARSCHLAMAPNHAVVSRMDKVERLKQVLLHQQAKFGRNGSDCPDKFCLFQSETKNLLFNDNTECLARLHGKTTYEKYLGPQYVAGITNLKKCSTSPLLEACEFLRK
Decrease of N-protein RNA copies [1]: 28.0%

B2: Unsaturated iron lactoferrin: lactoferrin that has been depleted of iron; also termed reduced iron lactoferrin or apolactoferrin (protein, UniProt P02788 20-710, looked up)
Lactotransferrin: GRRRSVQWCAVSQPEATKCFQWQRNMRKVRGPPVSCIKRDSPIQCIQAIAENRADAVTLDGGFIYEAGLAPYKLRPVAAEVYGTERQPRTHYYAVAVVKKGGSFQLNELQGLKSCHTGLRRTAGWNVPIGTLRPFLNWTGPPEPIEAAVARFFSASCVPGADKGQFPNLCRLCAGTGENKCAFSSQEPYFSYSGAFKCLRDGAGDVAFIRESTVFEDLSDEAERDEYELLCPDNTRKPVDKFKDCHLARVPSHAVVARSVNGKEDAIWNLLRQAQEKFGKDKSPKFQLFGSPSGQKDLLFKDSAIGFSRVPPRIDSGLYLGSGYFTAIQNLRKSEEEVAARRARVVWCAVGEQELRKCNQWSGLSEGSVTCSSASTTEDCIALVLKGEADAMSLDGGYVYTAGKCGLVPVLAENYKSQQSSDPDPNCVDRPVEGYLAVAVVRRSDTSLTWNSVKGKKSCHTAVDRTAGWNIPMGLLFNQTGSCKFDEYFSQSCAPGSDPRSNLCALCIGDEQGENKCVPNSNERYYGYTGAFRCLAENAGDVAFVKDVTVLQNTDGNNNEAWAKDLKLADFALLCLDGKRKPVTEARSCHLAMAPNHAVVSRMDKVERLKQVLLHQQAKFGRNGSDCPDKFCLFQSETKNLLFNDNTECLARLHGKTTYEKYLGPQYVAGITNLKKCSTSPLLEACEFLRK
modifications: iron-depleted apolactoferrin
Inhibition of SARS-CoV-2 infection in vitro [2]: directly inhibited SARS-CoV-2 infection more effectively compared to hololactoferrin; also recorded: inhibited SARS-CoV-2 infection when administered alone
Reduction of virus-induced cytotoxicity ([2]; MOI 0.3): more effective than recombinant lactoferrin
